3 proteins from publication PMC2702000 (PLoS Pathogens, 2009) can be followed below.

Data set [1] deals with the molecule itself. Put plainly: AUC.
Data set [2] deals with the molecule itself. In words: solution NMR structure (inter-monomer NOEs, PRE, RDCs).

B1: full length SARS-CoV E protein (natural protein)
chain: MYSFVSEETGTLIVNSVLLFLAFVVFLLVTLAILTALRLCAYCCNIVNVSLVKPTVYVYSRVKNLNSSEGVPDLLV
In the case of B1, the “stoichiometry N” value in data set [1] was 5.

B2: ETM peptide, transmembrane domain of SARS-CoV E (residues 8-38) (peptide)
chain: ETGTLIVNSVLLFLAFVVFLLVTLAILTALR
Regarding B2, the binding result in data set [2] was “binds”.

B3: synthetic ETM spanning residues 7-42 of SARS-CoV E (peptide)
chain: EETGTLIVNSVLLFLAFVVFLLVTLAILTALRLCAY
B3: the “stoichiometry N” value in data set [1] was determined as 5.

Usually stoichiometry N stands for the number of molecules, sites or subunits per partner or assembly.
